Laboratory results from paper doi:10.1101/2025.03.16.643581.

Molecular target: CDKL5-PBM peptide, WT (FITC-labeled) (human)
Experiment: fluorescence polarisation

Kd [µM] | Substance
146 | PSD95 PDZ1 domain (domain or fragment)
40.8 | PSD95 PDZ2 domain (domain or fragment)
13.3 | PSD95 PDZ3 domain (domain or fragment)
